Experimental data reported in PMC10414051, “FOXP1-GINS1 axis promotes DLBCL proliferation and directs doxorubicin resistance”.

T1: FOXP1 (recombinant, pET28a) (UniProt Q9H334 1-677)
T1 sequence: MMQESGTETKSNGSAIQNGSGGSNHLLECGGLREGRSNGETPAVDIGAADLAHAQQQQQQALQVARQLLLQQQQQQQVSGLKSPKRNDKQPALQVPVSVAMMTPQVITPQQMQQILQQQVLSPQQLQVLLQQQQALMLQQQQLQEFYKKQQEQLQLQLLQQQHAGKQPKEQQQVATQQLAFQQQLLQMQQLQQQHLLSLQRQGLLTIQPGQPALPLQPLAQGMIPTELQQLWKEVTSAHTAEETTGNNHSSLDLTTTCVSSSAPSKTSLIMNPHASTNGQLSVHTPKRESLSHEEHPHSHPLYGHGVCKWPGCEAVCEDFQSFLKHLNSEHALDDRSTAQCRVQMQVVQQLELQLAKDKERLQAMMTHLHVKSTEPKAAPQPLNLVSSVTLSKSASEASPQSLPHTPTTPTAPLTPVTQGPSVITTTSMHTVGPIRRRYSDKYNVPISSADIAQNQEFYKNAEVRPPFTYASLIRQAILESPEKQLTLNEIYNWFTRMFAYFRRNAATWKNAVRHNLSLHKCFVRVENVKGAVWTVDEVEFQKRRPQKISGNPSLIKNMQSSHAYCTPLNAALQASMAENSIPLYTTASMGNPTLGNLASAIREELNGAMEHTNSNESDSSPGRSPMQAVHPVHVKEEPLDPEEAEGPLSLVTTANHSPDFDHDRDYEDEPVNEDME

B1: Probe B (GINS1 promoter FOXP1 site B) (dsDNA)
DNA 1: AGCTCAAGAGTTGTCGACCAGACTG
DNA 2: CAGTCTGGTCGACAACTCTTGAGCT
B2: Probe A (GINS1 promoter FOXP1 site A) (dsDNA)
DNA 1: TCAAAAAGGCAATGTTTGCTGGGTG
DNA 2: CACCCAGCAAACATTGCCTTTTTGA

Target: T1, FOXP1 (recombinant, pET28a)
Test: EMSA; Nondenaturing PAGE EMSA, HRP-streptavidin detection; buffer, salt, pH and temperature not stated
Conditions: protein: recombinant; tags: His tag (implied by pET28a and Ni-NTA); chain copies: 2; blunt

Row | Binder | binding result
1 | B1 | binds
2 | B2 | binds
